Assay results reported in US20220096653A1, “CONJUGATE COMPRISING LIGAND AND CEACAM5 ANTIBODY FAB FRAGMENT” (ASTELLAS PHARMA INC., priority 2019, published 2022).

T1: CEACAM5 (R&D Systems, 4128-CM-050) (human, UniProt P06731 35-685)
T1 construct: Immobilised on the ELISA plate; also called human CEACAM5
T1 sequence (looked up): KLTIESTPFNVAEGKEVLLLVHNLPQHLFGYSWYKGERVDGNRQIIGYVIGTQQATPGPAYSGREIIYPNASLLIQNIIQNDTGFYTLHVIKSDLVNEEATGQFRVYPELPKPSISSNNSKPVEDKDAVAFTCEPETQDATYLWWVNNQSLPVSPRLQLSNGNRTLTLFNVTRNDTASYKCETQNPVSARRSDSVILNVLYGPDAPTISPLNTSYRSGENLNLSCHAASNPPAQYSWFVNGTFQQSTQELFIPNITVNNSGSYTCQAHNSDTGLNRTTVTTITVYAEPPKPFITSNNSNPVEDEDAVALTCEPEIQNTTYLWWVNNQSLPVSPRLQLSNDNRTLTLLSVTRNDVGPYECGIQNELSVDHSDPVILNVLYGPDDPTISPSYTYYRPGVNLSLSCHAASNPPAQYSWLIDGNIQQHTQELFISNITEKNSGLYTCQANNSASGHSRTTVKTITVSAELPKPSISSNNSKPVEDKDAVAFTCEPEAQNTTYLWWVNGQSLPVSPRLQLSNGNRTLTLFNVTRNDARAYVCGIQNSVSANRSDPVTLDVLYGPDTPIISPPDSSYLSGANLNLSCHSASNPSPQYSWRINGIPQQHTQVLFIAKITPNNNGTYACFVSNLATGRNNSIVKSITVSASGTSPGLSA


Target: T1, CEACAM5 (R&D Systems, 4128-CM-050)
Assay: ELISA on immobilised CEACAM5, 4-parameter fit, duplicate
Description: Each anti-human CEACAM5 antibody Fab fragment conjugate prepared in Example 2 was subjected to ELISA to evaluate the binding activity thereof to CEACAM5. In the present test, a phosphate buffer (Nacalai Tesque Inc., 0.1 mol/L-Phosphate Buffer Solution (pH 7.2)) prepared to 10 mM by diluting 10-fold with distilled water was used as a solvent for an antigen immobilization liquid, and 20×PBS/Tween 20 Buffer (Thermo Fisher Scientific Inc., 28352) diluted 20-fold with distilled water was used as a wash liquid. In addition, for bovine serum albumin (BSA) used in the present test, 30% Bovine Serum Albumin solution (Sigma-Aldrich, Inc., A9576-50ML) was added in an appropriate proportion for use. CEACAM5 (R&D Systems, 4128-CM-050) was diluted with a 10 mM phosphate buffer (pH 7.2) to 0.1 μg/mL, and added to a Nunc MaxiSorp White 384 plate (Nunc, 4603272) at 30 μL per well, and the plate was incubated overnight at 4° C. for immobilization. The CEACAM5 immobilization liquid was removed by reverse centrifugation, and then blocking was carried out by adding a PBS/Tween 20 buffer containing 5.0% BSA. Thereafter, the blocking solution was removed by reverse centrifugation, a solution of each CEACAM5 antibody Fab² fragment conjugate described above or a Fab² fragment having no labeling portion (PB009-01) as a control at about 10000 ng/mL was diluted in 14 steps by 3-fold dilution using a PBS/Tween 20 buffer containing 1.0% BSA, and 30 μL was added per well and incubated at room temperature for 60 minutes. The plate was washed 3 times with a PBS/Tween 20 buffer, and Horseradish Peroxidase (HRP)-labeled goat anti-human IgG (H+L chain) antibody (MBL Life Sciences, 206) diluted 1000-fold using a PBS/Tween 20 buffer containing 5.0% BSA was added at 30 μL per well and incubated at room temperature for 30 minutes. The plate was washed 3 times with a PBS/Tween 20 buffer, and ECL Prime Western Blotting DETECTION Reagent (GE Healthcare, RPN2232) as a substrate was added at 30 μL per well. The substrate was incubated at room temperature for 15 minutes, and then a signal value thereof was measured using an Envision counter (PerkinElmer, Inc.).
The test for each antibody was carried out in duplicate, and an EC₅₀ value was calculated using a 4-parameter logistic curve model.

| Binder | EC50 |
| --- | --- |
| [Gd/4arm-DOTA-CH2-(1,4-Ph)-NH-C(═S)-Gly-Phe-Lys*-Z2(#N)]p-Fab^2 (Fab, V domains shown, labeling may sit on this chain; sites not stated; labeling portion (MW 1136) on amino groups of the Fab, sites and chain not stated; 1-3 per Fab by MS, also called Ex-No 12; Conjugate No. 12) VH: EVQLVESGGGLVQPGGSLRLSCAASGFNIRDTYMHWVRQAPGKGLEWVARIDPANGNSRYVPKFQGRFTISADTSRNTAYLQMNSLRAEDTAVYYCAPFGYYVSDYAMAYWGQGTLVTVSS VL: DIQLTQSPSSLSASVGDRVTITCRAGESVDIFGVGFLHWYQQKPGKAPKLLIYRASNLESGIPSRFSGSGSRTDFTLTISSLQPEDFATYYCQQTNEDPYTFGQGTKVEIKR | 110 pM |
| (Y-S1-X)p-Fab^2 with Y Gd/DOTA, S1 -NH-(CH2)2-C(═O)-, X -Gly-Lys*-Z2(#N)- (Fab, V domains shown, labeling may sit on this chain; sites not stated; labeling portion (MW 896) on amino groups of the Fab, sites and chain not stated; 1-3 per Fab by MS, also called Ex-No 22; conjugate 22) VH: EVQLVESGGGLVQPGGSLRLSCAASGFNIRDTYMHWVRQAPGKGLEWVARIDPANGNSRYVPKFQGRFTISADTSRNTAYLQMNSLRAEDTAVYYCAPFGYYVSDYAMAYWGQGTLVTVSS VL: DIQLTQSPSSLSASVGDRVTITCRAGESVDIFGVGFLHWYQQKPGKAPKLLIYRASNLESGIPSRFSGSGSRTDFTLTISSLQPEDFATYYCQQTNEDPYTFGQGTKVEIKR | 320 pM |
| (Y-S1-X)p-Fab^2 with Y Gd/DOTA, S1 - (bond), X -Gly-Tyr*-CH2-C(═O)-NH-(CH2)2-Z1(#S)- (Fab, V domains shown, labeling may sit on this chain; sites not stated; labeling portion (MW 1061) on amino groups of the Fab, sites and chain not stated; 1-3 per Fab by MS, also called Ex-No 7; conjugate 7) VH: EVQLVESGGGLVQPGGSLRLSCAASGFNIRDTYMHWVRQAPGKGLEWVARIDPANGNSRYVPKFQGRFTISADTSRNTAYLQMNSLRAEDTAVYYCAPFGYYVSDYAMAYWGQGTLVTVSS VL: DIQLTQSPSSLSASVGDRVTITCRAGESVDIFGVGFLHWYQQKPGKAPKLLIYRASNLESGIPSRFSGSGSRTDFTLTISSLQPEDFATYYCQQTNEDPYTFGQGTKVEIKR | 170 pM |
| (Y-S1-X)p-Fab^2 with Y Gd/DOTA, S1 - (bond), X -Gly-Tyr*-CH2(═O)-NH-(CH2)2-Z1(#N)- (Fab, V domains shown, labeling may sit on this chain; sites not stated; labeling portion (MW 960) on amino groups of the Fab, sites and chain not stated; 1-4 per Fab by MS, also called Ex-No 21; conjugate 21) VH: EVQLVESGGGLVQPGGSLRLSCAASGFNIRDTYMHWVRQAPGKGLEWVARIDPANGNSRYVPKFQGRFTISADTSRNTAYLQMNSLRAEDTAVYYCAPFGYYVSDYAMAYWGQGTLVTVSS VL: DIQLTQSPSSLSASVGDRVTITCRAGESVDIFGVGFLHWYQQKPGKAPKLLIYRASNLESGIPSRFSGSGSRTDFTLTISSLQPEDFATYYCQQTNEDPYTFGQGTKVEIKR | 270 pM |
| (Y-S1-X)p-Fab^2 with Y Gd/DOTA, S1 - (bond), X -Gly-Tyr*-CH2-C(═O)-NH-(CH2O)3-CH2-C(═O)-NH-(CH2)2-Z1(#N)- (Fab, V domains shown, labeling may sit on this chain; sites not stated; labeling portion (MW 1149) on amino groups of the Fab, sites and chain not stated; 1-2 per Fab by MS, also called Ex-No 17; conjugate 17) VH: EVQLVESGGGLVQPGGSLRLSCAASGFNIRDTYMHWVRQAPGKGLEWVARIDPANGNSRYVPKFQGRFTISADTSRNTAYLQMNSLRAEDTAVYYCAPFGYYVSDYAMAYWGQGTLVTVSS VL: DIQLTQSPSSLSASVGDRVTITCRAGESVDIFGVGFLHWYQQKPGKAPKLLIYRASNLESGIPSRFSGSGSRTDFTLTISSLQPEDFATYYCQQTNEDPYTFGQGTKVEIKR | 230 pM |
| (Y-S1-X)p-Fab^2 with Y Gd/DOTA, S1 -NH-CH2-(1,3-Ph)-C(═O)-, X -Gly-Tyr*-CH2-C(═O)-NH-(CH2)2-Z1(#N)- (Fab, V domains shown, labeling may sit on this chain; sites not stated; labeling portion (MW 1093) on amino groups of the Fab, sites and chain not stated; 1-3 per Fab by MS, also called Ex-No 14; conjugate 14) VH: EVQLVESGGGLVQPGGSLRLSCAASGFNIRDTYMHWVRQAPGKGLEWVARIDPANGNSRYVPKFQGRFTISADTSRNTAYLQMNSLRAEDTAVYYCAPFGYYVSDYAMAYWGQGTLVTVSS VL: DIQLTQSPSSLSASVGDRVTITCRAGESVDIFGVGFLHWYQQKPGKAPKLLIYRASNLESGIPSRFSGSGSRTDFTLTISSLQPEDFATYYCQQTNEDPYTFGQGTKVEIKR | 130 pM |
| [Gd/DOTA-NH-CH2-(1,3-Ph)-C(═O)-Met-Gly-Lys*-Z2(#N)]p-Fab^2 (Fab, V domains shown, labeling may sit on this chain; sites not stated; labeling portion (MW 1089) on amino groups of the Fab, sites and chain not stated; 1-3 per Fab by MS, also called Ex-No 13; Conjugate No. 13) VH: EVQLVESGGGLVQPGGSLRLSCAASGFNIRDTYMHWVRQAPGKGLEWVARIDPANGNSRYVPKFQGRFTISADTSRNTAYLQMNSLRAEDTAVYYCAPFGYYVSDYAMAYWGQGTLVTVSS VL: DIQLTQSPSSLSASVGDRVTITCRAGESVDIFGVGFLHWYQQKPGKAPKLLIYRASNLESGIPSRFSGSGSRTDFTLTISSLQPEDFATYYCQQTNEDPYTFGQGTKVEIKR | 140 pM |
| [Gd/DOTA-NH-(CH2CH2O)3-CH2-C(═O)-NH-CH2-(1,3-Ph)-C(═O)-Gly-Lys*-Z2(#N)]p-Fab^2 (Fab, V domains shown, labeling may sit on this chain; sites not stated; labeling portion (MW 1147) on amino groups of the Fab, sites and chain not stated; 1-3 per Fab by MS, also called Ex-No 15; Conjugate No. 15) VH: EVQLVESGGGLVQPGGSLRLSCAASGFNIRDTYMHWVRQAPGKGLEWVARIDPANGNSRYVPKFQGRFTISADTSRNTAYLQMNSLRAEDTAVYYCAPFGYYVSDYAMAYWGQGTLVTVSS VL: DIQLTQSPSSLSASVGDRVTITCRAGESVDIFGVGFLHWYQQKPGKAPKLLIYRASNLESGIPSRFSGSGSRTDFTLTISSLQPEDFATYYCQQTNEDPYTFGQGTKVEIKR | 130 pM |
